# Experimental data from the supplement of paper PMC10567573.
# B1: SPSB4 (parent)
# chain: LDMDEGTLSFIVDGQYLGVAFRGL
# B2: KCNAB2 (parent)
# chain: IPPYSRASLKGYQWLKDKILSEEG
# Variants of: B1
# Test: protein stability index of a GFP-peptide fusion (GPS, HEK-293T) (PSI 1-6); higher = more stable
# Details: c terminus: a fixed tail appended
# 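Note: lentivirally expressed fusions sorted by FACS into six bins by GFP to DsRed ratio, PSI derived from sequencing read proportions per bin multiplied by bin number.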
row,Variant,protein stability index
1,LDMDEGTLSFIVDGQYLGVAFRGR,2.11
2,LDMDEGTLSFIVDGQYLGVAFRGQ,2.6
3,LDMDEGTLSFIVDGQYLGVAFRGV,3.18
4,LDMDEGTLSFIVDGQYLGVAFRGM,1.84
5,LDMDEGTLSFIVDGQYLGVAFRGY,2.76
6,LDMDEGTLSFIVDGQYLGVAFRGT,2.67
7,LDMDEGTLSFIVDGQYLGVAFRGS,1.88
8,LDMDEGTLSFIVDGQYLGVAFRGP,2.78
9,LDMDEGTLSFIVDGQYLGVAFRGW,2.54
10,LDMDEGTLSFIVDGQYLGVAFRGN,2.19

# Variants of: B2
# Test: as above
# Details: c terminus: a fixed tail appended
row,Variant,protein stability index
1,IPKYSRASLKGYQWLKDKILSEEG,2.75
2,IPIYSRASLKGYQWLKDKILSEEG,2.28
3,IPRYSRASLKGYQWLKDKILSEEG,3.2
4,IPAYSRASLKGYQWLKDKILSEEG,2.27
5,IPYYSRASLKGYQWLKDKILSEEG,2.53
6,IPLYSRASLKGYQWLKDKILSEEG,3.1
7,IPNYSRASLKGYQWLKDKILSEEG,2.48
8,IPVYSRASLKGYQWLKDKILSEEG,2.3
9,IPGYSRASLKGYQWLKDKILSEEG,1.78
10,IPQYSRASLKGYQWLKDKILSEEG,2.54
11,IPFYSRASLKGYQWLKDKILSEEG,2.85
12,IPEYSRASLKGYQWLKDKILSEEG,2.5
13,IPCYSRASLKGYQWLKDKILSEEG,1.51
14,IPDYSRASLKGYQWLKDKILSEEG,3.1
15,IPSYSRASLKGYQWLKDKILSEEG,2.62
16,IPHYSRASLKGYQWLKDKILSEEG,1.74
17,IPTYSRASLKGYQWLKDKILSEEG,2.06
18,IPPYSRASLNGYQWLKDKILSEEG,2.42
19,IPPYSRASLVGYQWLKDKILSEEG,2.14
20,IPPYSRASLWGYQWLKDKILSEEG,2.29
21,IPPYSRASLAGYQWLKDKILSEEG,2.47

row,Variant,protein stability index
1,IPPYSRASLHGYQWLKDKILSEEG,2.91
2,IPPYSRASLIGYQWLKDKILSEEG,2.2
3,IPPYSRASLRGYQWLKDKILSEEG,1.68
4,IPPYSRASLFGYQWLKDKILSEEG,1.67
5,IPPYSRASLCGYQWLKDKILSEEG,1.72
6,IPPYSRASLTGYQWLKDKILSEEG,3.38
7,IPPYSRASLGGYQWLKDKILSEEG,2.88
8,IPPYSRASLYGYQWLKDKILSEEG,2.84
9,IPPYSRASLQGYQWLKDKILSEEG,3.27
10,IPPYSRASLLGYQWLKDKILSEEG,2.37
11,IPPYSRASLDGYQWLKDKILSEEG,3.49
12,IPPYSRASLSGYQWLKDKILSEEG,3.34
13,IPPYSRASLMGYQWLKDKILSEEG,2.4
14,IPPYSRASLEGYQWLKDKILSEEG,3.57
15,IPPYSRASLPGYQWLKDKILSEEG,3.76
16,CPPYSRASLKGYQWLKDKILSEEG,2.43
17,GPPYSRASLKGYQWLKDKILSEEG,2.19
18,PPPYSRASLKGYQWLKDKILSEEG,2.82
19,HPPYSRASLKGYQWLKDKILSEEG,2.59
20,EPPYSRASLKGYQWLKDKILSEEG,3.38
21,SPPYSRASLKGYQWLKDKILSEEG,3.37

row,Variant,protein stability index
1,NPPYSRASLKGYQWLKDKILSEEG,2.5
2,KPPYSRASLKGYQWLKDKILSEEG,2.33
3,APPYSRASLKGYQWLKDKILSEEG,2.6
4,DPPYSRASLKGYQWLKDKILSEEG,3.51
5,LPPYSRASLKGYQWLKDKILSEEG,2.08
6,FPPYSRASLKGYQWLKDKILSEEG,2.15
7,TPPYSRASLKGYQWLKDKILSEEG,2.99
8,MPPYSRASLKGYQWLKDKILSEEG,2.19
9,VPPYSRASLKGYQWLKDKILSEEG,2.77
10,IPPYSRAILKGYQWLKDKILSEEG,1.58
11,IPPYSRAELKGYQWLKDKILSEEG,1.31
12,IPPYSRAPLKGYQWLKDKILSEEG,2.64
13,IPPYSRADLKGYQWLKDKILSEEG,2.53
14,IPPYSRAFLKGYQWLKDKILSEEG,2.21
15,IPPYSRATLKGYQWLKDKILSEEG,2.24
16,IPPYSRAQLKGYQWLKDKILSEEG,2.72
17,IPPYSRAHLKGYQWLKDKILSEEG,2.97
18,IPPYSRANLKGYQWLKDKILSEEG,2.53
19,IPPYSRAALKGYQWLKDKILSEEG,2.6
20,IPPYSRAYLKGYQWLKDKILSEEG,1.9
21,IPPYSRAGLKGYQWLKDKILSEEG,1.96

row,Variant,protein stability index
1,IPPYHRASLKGYQWLKDKILSEEG,2.63
2,IPPYFRASLKGYQWLKDKILSEEG,3.12
3,IPPYERASLKGYQWLKDKILSEEG,3.09
4,IPPYDRASLKGYQWLKDKILSEEG,2.8
5,IPPYQRASLKGYQWLKDKILSEEG,2.45
6,IPPYYRASLKGYQWLKDKILSEEG,2.79
7,IPPYPRASLKGYQWLKDKILSEEG,3.12
8,IPPYNRASLKGYQWLKDKILSEEG,2.21
9,IPPYARASLKGYQWLKDKILSEEG,2.15
10,IPPYTRASLKGYQWLKDKILSEEG,2.42
11,IPPYKRASLKGYQWLKDKILSEEG,2
12,IPPYGRASLKGYQWLKDKILSEEG,3.42
13,IPPYRRASLKGYQWLKDKILSEEG,1.82
14,IPPYSRASLKMYQWLKDKILSEEG,2.08
15,IPPYSRASLKIYQWLKDKILSEEG,2.37
16,IPPYSRASLKEYQWLKDKILSEEG,3.51
17,IPPYSRASLKDYQWLKDKILSEEG,2.89
18,IPPYSRASLKRYQWLKDKILSEEG,2.66
19,IPPYSRASLKTYQWLKDKILSEEG,2.1
20,IPPYSRASLKNYQWLKDKILSEEG,2.68
21,IPPYSRASLKSYQWLKDKILSEEG,1.64
